Results from patent US20180037654A1.

Assays:
[1] = molecular target: human CTLA-4 (Y166G and Y183G) expressed on CHO-K1.hCTLA-4 cells (human) (UniProt P16410); assay: CELISA, blockade of biotinylated hCD86/Fc binding to CHO-K1.hCTLA-4 cells (Example 6)
[2] = molecular target: Mou-Hum-CTLA-4 (mouse/human chimera); assay: CELISA on CHO-K1 cells transiently transfected with Mou-Hum-CTLA-4, panel Mouse/Human
[3] = molecular target: human CTLA-4 (Y166G and Y183G) expressed on CHO-K1.hCTLA-4 cells (human) (UniProt P16410); assay: CELISA, blockade of biotinylated hCD80/Fc binding to CHO-K1.hCTLA-4 cells (Example 6)
human CTLA-4 (human) = human CTLA-4 (human) (UniProt P16410); assay: CELISA on CHO-K1 cells transiently transfected with human CTLA-4, panel Human
Chain of human CTLA-4 (human) (P16410 36-223 limits assumed): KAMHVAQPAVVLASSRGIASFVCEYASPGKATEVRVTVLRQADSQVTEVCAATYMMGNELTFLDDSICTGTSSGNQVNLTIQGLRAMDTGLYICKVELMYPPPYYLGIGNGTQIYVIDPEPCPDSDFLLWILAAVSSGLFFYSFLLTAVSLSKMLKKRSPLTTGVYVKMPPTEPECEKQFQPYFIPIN

[4] = molecular target: human CTLA-4 (Y166G and Y183G) expressed on CHO-K1.hCTLA-4 cells (human) (UniProt P16410); assay: CELISA on CHO-K1.hCTLA-4 cells (Example 6)
rhCTLA-4/Fc/6His (human) = assay: BLI (Octet RED96), antibody amine-coupled to biosensor, rhCTLA-4/Fc 2.5-40 nM, 1:1 global fit
Chain of rhCTLA-4/Fc/6His (human) (chain, as listed by the source limits assumed): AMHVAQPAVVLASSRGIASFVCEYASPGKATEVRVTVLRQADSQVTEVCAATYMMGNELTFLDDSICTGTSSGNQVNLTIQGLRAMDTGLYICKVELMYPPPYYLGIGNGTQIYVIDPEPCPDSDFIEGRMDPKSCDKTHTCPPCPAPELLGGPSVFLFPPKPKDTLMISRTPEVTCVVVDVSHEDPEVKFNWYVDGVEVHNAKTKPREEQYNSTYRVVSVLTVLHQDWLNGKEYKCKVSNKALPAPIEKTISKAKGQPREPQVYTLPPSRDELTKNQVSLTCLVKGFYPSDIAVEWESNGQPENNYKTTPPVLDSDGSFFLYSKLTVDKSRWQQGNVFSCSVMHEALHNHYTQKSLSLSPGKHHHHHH

Chain of CP-675,206 (antibody) (VH): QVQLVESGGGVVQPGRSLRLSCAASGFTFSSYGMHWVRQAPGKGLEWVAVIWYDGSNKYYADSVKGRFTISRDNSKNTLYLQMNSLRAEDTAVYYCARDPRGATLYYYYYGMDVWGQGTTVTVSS
Chain of CP-675,206 (antibody) (VL): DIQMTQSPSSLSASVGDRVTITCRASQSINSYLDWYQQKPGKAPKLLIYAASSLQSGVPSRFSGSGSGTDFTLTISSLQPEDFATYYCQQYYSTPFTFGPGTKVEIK
Chain of human CTLA-4 (Y166G and Y183G) expressed on CHO-K1.hCTLA-4 cells (human) (P16410 36-223 Y201G/Y218G limits assumed): as the sequence (P16410 36-223 limits assumed) above, with Y166G, Y183G counted along it
Chain of Mou-Hum-CTLA-4 (mouse/human chimera) (chain, as listed by the source mutant limits assumed): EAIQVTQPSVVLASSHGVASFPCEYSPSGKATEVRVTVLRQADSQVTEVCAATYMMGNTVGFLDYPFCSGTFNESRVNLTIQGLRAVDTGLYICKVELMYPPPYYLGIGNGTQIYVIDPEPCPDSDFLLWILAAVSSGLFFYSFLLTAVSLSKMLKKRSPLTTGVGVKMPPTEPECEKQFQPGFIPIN

IC50 [1]: 1.69 nM
EC50 (read off the curve) [2]: 0.04 nM
IC50 [3]: 1.75 nM
EC50 (read off the curve) (human CTLA-4 (human)): 0.05 nM
EC50 [4]: 0.037 nM
Kd (rhCTLA-4/Fc/6His (human)): 3.4 nM
Substance: CP-675,206 (antibody)
